Reference: PMC2789664
Where two headings read alike, the source gives them in different places.

Legend:
GAPDH wild type [1] = biological target: T1, GAPDH wild type (Homo sapiens, UniProt P04406 1-335); experiment: competition EMSA
GAPDH wild type [2] = biological target: T1, GAPDH wild type; experiment: EMSA
GAPDH wild type [3] = biological target: T1, GAPDH wild type; experiment: competition EMSA; remark: listed apart in the source
GAPDH wild type [4] = biological target: T1, GAPDH wild type; experiment: competition EMSA; remark: listed apart in the source

T1 sequence (P04406 whole entry): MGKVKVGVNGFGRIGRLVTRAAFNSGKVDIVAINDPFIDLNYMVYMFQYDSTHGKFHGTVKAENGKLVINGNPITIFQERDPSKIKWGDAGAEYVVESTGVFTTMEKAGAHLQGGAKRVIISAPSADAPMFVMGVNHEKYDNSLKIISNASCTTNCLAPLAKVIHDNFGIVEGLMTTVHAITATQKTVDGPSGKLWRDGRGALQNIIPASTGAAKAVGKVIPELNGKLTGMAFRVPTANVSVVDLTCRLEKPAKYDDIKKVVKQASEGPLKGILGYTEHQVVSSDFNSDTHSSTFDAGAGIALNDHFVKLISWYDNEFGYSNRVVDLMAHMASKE

TTTGGGTTTGGGTTTGGG (ssDNA) [ss-(TTTGGG)3]: binds (GAPDH wild type [1]).

TTAGGGTTAGGGTTAGGG (ssDNA) [ss-(TTAGGG)3] gave a Kd (GAPDH wild type [2]) of 70 ± 5 nM.

TTAGCGTTAGCGTTAGCG (ssDNA) [ss-(TTAGCG)3]: no binding (GAPDH wild type [3]).

Work on AGGGTTAGGGTTAGGGTT (ssDNA) [ss-(AGGGTT)3] yielded a Kd (GAPDH wild type [2]) of 45 ± 5 nM.

ATAGGGATAGGGATAGGG (ssDNA) [ss-(ATAGGG)3]: no binding (GAPDH wild type [3]).

AGATGTAGCAATAGTAGT (ssDNA) [control 18-mer]: no binding (GAPDH wild type [4]).

TTAGGCTTAGGCTTAGGC (ssDNA) [ss-(TTAGGC)3]: no binding (GAPDH wild type [3]).
